{"source": "patent US9505841B2", "about": "“Use of an anti-Ang2 antibody” (Samsung Electronics Co., Ltd., priority 2013, dated 2016)", "key": {"[1]": {"tested_on": "LLC (Lewis Lung Carcinoma)", "assay": "LLC tumor growth model", "format": "in vivo, mouse", "conditions": "LLC in C57BL/6 mice; 10 mg/kg intraperitoneal three times a week; control Fc of IgG1", "experimental": "To see the tumor growth inhibitory effects of Ang2 antibody, a […] Xenograft model using a LLC (Lewis Lung Carcinoma) was employed.\nLLC cells (ATCC) were cultured using 10% FBS (Gibco)-supplemented DMEM (Gibco) media. 1×10^6 of LLC cells were re-suspended in 100 ul of PBS (Gibco) and then subcutaneously injected into 6˜8-week-old C57BL/6 mice (Jackson Laboratory) anesthetized with 1˜2% isoflurane.\nWhen the size of tumors reached 50˜100 mm^3, anti-Ang2 antibody (10D6) was injected at the concentration of 10 mg/kg via an intraperitoneal injection three times a week and the size of the tumors was measured.\nThe size of tumor (V) was calculated using the following formula: Volume (V)=(width)2×length/2\n(§1) For comparison, the same experiment was performed to a control group treated with Fc of IgG1 and a comparative group treated with antibody 4H10 (refer to Example 3)."}, "[2]": {"tested_on": "Tie2 receptor", "assay": "Tie2 phosphorylation in HUVEC cells (immunoprecipitation/immunoblot)", "format": "cell-based, human", "experimental": "As Ang2 induces a change in vascular endothelial cells by binding to a Tie-2 receptor expressed in the vascular endothelial cells to induce the phosphorylation of the receptor and activate it, a test for analyzing an influence of the anti-Ang2 antibody on Tie2 phosphorylation was conducted using a cell-based assay.\nFor this, HUVEC (ATCC) cells (1×10^6) were cultured in a 100 mm culture dish using EGM-2 (Lonza) media at 37° C. and when they reached 80˜90% confluency, the media were replaced with serum-free media and cultured at 37° C. for 6 to 16 hours. The dish was washed once with PBS and after the replacement with […] sodium orthovanadate (Sigma)-mixed serum free media (Lonza), they were further cultured for 10 min. […]\nIn addition, referring to the above method, when 60 nM of antibody 10D6 and Ang2 were treated, the phosphorylation level of Tie2 was measured and compared with the case of treating a control antibody (anti-Ang2 antibody (Regeneron) which has MOA of inhibiting binding between Ang2 and Tie2; represented as ‘RG antibody’). After treating with the antibody (10D6 or RG), the blot band density of pTyr and Tie2 was measured using ImageJ software and pTyr/Tie2 ratio was calculated."}, "[3]": {"tested_on": "Akt, eNOS and 42/44", "assay": "Phosphorylation of Tie2 downstream signaling proteins in HUVEC (immunoblot)", "format": "cell-based, human", "experimental": "To see whether antibody 10D6 induces the activation of the downstream signaling of a Tie2 receptor as well as the activation of the Tie2 receptor itself, the phosphorylation degrees of proteins participating in the downstream signaling when Ang2 alone or Ang2 and antibody 10D6 was treated were tested using immune blotting.\nSpecifically, HUVEC (ATCC) cells (1×10^6) were cultured in a 6-well culture dish using EGM-2 (Lonza) media at 37° C. and when they reached 80˜90% confluency, the media were replaced with serum-free media (Lonza) and cultured at 37° C. for 6 to 16 hours. The dish was washed once with PBS, and the cultured cells were treated with a mixture prepared by mixing 60 nM of the Ang2 antibody (10D6) with 40 nM of Ang2 protein (R&D systems) and letting them stand for 20 min. and further cultured for 30 min. For comparison, groups in which Ang1 (R&D systems) 4 nM, Ang2 (R&D systems) 40 nM, and Ang2 (R&D systems) 40 nM+anti-Ang2 antibody (Regeneron) 60 nM were treated respectively were prepared.\nThe cells were washed using PBS, treated with a lysis buffer (Roche), collected to a tube to be dissolved at 4° C. for 30 min. and then, centrifuged at 13,000 rpm for 15 min. to measure a supernatant. A sample buffer (Invitrogen) mixed with a reducing agent was added to 25 ug of a cell lysate, which was boiled at 95° C. for 5 min., and then, applied to NuPAGE Novex 4-12% Bis-Tris gel (Invitrogen) and transferred onto Nitrocellulose membrane (Invitrogen).\nTo see the presence of the phosphorylation of Akt, eNOS and 42/44 involved in the downstream signaling, the blots were blocked with PBST mixed with 3% (v/v) skim milk (Sigma) for 30 min. and then treated with an anti pAkt antibody, anti p-eNOS antibody, and anti p-42/44 antibody (all of them; cell signaling). The blots were reacted in a stripping buffer (Thermo) for 15 min. and then blocked again to identify Akt, eNOS, and 42/44 using an anti Akt antibody, anti eNOS antibody, and anti 42/44 antibody (all of them; cell signaling)."}, "[4]": {"tested_on": "metastasis of lung cancer cells to near lymph nodes", "assay": "LLC tumor metastasis to inguinal lymph nodes", "format": "in vivo, mouse", "conditions": "10 mg/kg i.p., five administrations, compared to Fc- or 4H10-treated group", "experimental": "To see the degree of tumor metastasis to near lymph nodes when treated with antibody 10D6, referring to the method of Example 14, LLC tumor cells were subcutaneously injected into mice. When the size of tumors reached 50˜100 mm^3, anti-Ang2 antibody 10D6 was injected at the concentration of 10 mg/kg via an intraperitoneal injection three times a week and the size of the tumors was measured. After administering the antibody five-times, inguinal lymph nodes were separated, and the obtained tissue sections were immunostained using rabbit anti-LYVE-1 antibody (1:200, Millipore) and mouse pan-Cytokeratin antibody (1;200, Abcam).\nas §1"}}}
{"molecule": "10D6: mouse anti-Ang2 monoclonal antibody from hybridoma KCLRF-BP-00295; heavy chain variable region SEQ ID NO: 7, light chain variable region SEQ ID NO: 9 (antibody, V domains shown, Synthetic (Heavy chain variable region of an anti-Ang2 antibody); Synthetic (Light chain variable region of anti-Ang2 antibody)) VH: DVQLQESGPGLVKPSQSLSLTCTVTGYSITSDYAWNWIRQFPGNKLEWMGYINYSGNTDYNPSLKSRSSITRDTSKNQFFLQLNSVTTGDTATYYCARGNFEGAMDYWGQGTSVTVSS VL: SIVMTQTPKFLLVSAGDRVTITCKASQSVSNDVAWYQQKPGQSPKLLIYYASNRYPGVPDRFTGSGYGTDFTFTISTVQAEDLAVYFCQQDYSSPWTFGGGTKLEIK", "values": [{"measurement": "inhibition of growth of the tumor compared to the control group", "setting": "[1]", "value": "about 40%"}, {"measurement": "Tie2 phosphorylation effect, fold higher than control antibody RG", "setting": "[2]; 60 nM antibody and Ang2", "value": "about 8.6 fold"}, {"measurement": "phosphorylation of Tie2 compared to Ang2 treated alone", "setting": "[2]; antibody 600~0.06 nM with 40 nM Ang2, every antibody concentration tested", "value": "more strongly induced"}, {"measurement": "downstream signaling (phosphorylation of Akt, eNOS, 42/44) compared to Ang2 sole-treatment and Ang2 + RG antibody", "setting": "[3]; 60 nM 10D6 + 40 nM Ang2, or Ang1 4 nM alone, 30 min", "value": "strongly induced"}, {"measurement": "downstream signaling effects relative to Ang1 sole-treatment group", "setting": "[3]; 60 nM 10D6 + 40 nM Ang2 vs Ang1 4 nM", "value": "at least equal to those in the Ang1 sole-treatment group"}, {"measurement": "number of metastatic lung cancer in lymph nodes", "setting": "[4]", "value": "decreased"}, {"measurement": "size of lymph nodes", "setting": "[4]", "value": "decreased"}]}
